In US20250215097A1 (BEIJING TIANNUOJIANCHENG PHARMA TECH, published 2025):

T1: human CCR4 (human, UniProt P51679 1-360)
T1 construct: also called hCCR4; human CCR4+ cells
T1 sequence: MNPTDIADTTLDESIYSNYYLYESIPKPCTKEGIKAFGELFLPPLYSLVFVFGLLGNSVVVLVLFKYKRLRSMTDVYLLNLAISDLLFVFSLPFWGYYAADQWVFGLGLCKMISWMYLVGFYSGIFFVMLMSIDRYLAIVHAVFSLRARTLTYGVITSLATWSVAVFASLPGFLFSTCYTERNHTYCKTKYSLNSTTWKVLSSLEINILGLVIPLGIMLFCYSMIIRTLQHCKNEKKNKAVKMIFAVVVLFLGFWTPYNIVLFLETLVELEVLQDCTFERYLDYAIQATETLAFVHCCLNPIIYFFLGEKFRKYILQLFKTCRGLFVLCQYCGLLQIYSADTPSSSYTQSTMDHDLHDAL


Columns and labels:
cynomolgus monkey CCR8 = target: T2, cynomolgus monkey CCR8 (cynomolgus monkey, UniProt O97665 1-356 (rhesus entry)); experiment: flow cytometry, chimeric IgG on CHO-cynoCCR8 cells
T2 construct: Full-length, stably expressed on CHO cells; also called cynoCCR8; CHO-cynoCCR8
T2 sequence (O97665 other isoform, or with tags, fused parts or gaps): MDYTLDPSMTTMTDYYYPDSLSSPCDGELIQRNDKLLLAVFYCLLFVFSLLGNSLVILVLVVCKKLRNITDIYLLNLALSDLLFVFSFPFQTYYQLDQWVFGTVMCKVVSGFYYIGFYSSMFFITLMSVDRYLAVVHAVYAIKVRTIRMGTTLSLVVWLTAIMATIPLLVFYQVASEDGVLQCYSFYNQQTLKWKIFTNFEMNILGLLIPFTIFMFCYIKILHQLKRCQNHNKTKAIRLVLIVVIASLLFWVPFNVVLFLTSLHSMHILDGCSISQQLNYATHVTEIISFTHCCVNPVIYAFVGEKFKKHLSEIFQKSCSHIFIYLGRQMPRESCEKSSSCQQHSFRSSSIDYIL
Protocol: (§1) 5×10⁴ CHO-hCCR8 or CHO-cynoCCR8 cells were added per well in a 96-well U-shaped plate and centrifuged to discard the supernatant, 100 μL of a gradiently diluted anti-CCR8 chimeric antibody or anti-KLH isotype control antibody was added per well and the mixture was incubated on ice for 60 minutes. After the unbound primary antibody was washed away, 50 μL of a secondary antibody AlexaFluro647 anti-human IgG (Jackson Immuno Research #109-606-170) was added per well and the mixture was incubated on ice for 30 minutes. After the washing, 50 μL of 5 μg/mL of a PI/BSA solution was added to each well and the mixture was incubated on ice for 5 minutes. Then excess secondary antibody was washed away with 0.5% BSA, the cells were resuspended by adding a PBS solution, and binding of the antibody to the cells was detected using a flow cytometer (Intellicyte iQue). The fluorescence value of a Pi-negative cell population was analyzed. Cell-binding curves were fitted by Graphpad Prism 7 (FIG. 2). The chimeric antibodies of 87D8, 102H5, 109F6, 110G2, 113B3, 139A9, 144D2, etc. all bound with high affinities to human CCR8+ cells CHO-hCCR8 and cynomolgus monkey CCR8+ cells CHO-cynoCCR8.

human CCR8 [1] = target: T3, human CCR8 (human, UniProt P51685 1-355); experiment: flow cytometry, chimeric IgG on CHO-hCCR8 cells
T3 construct: Full-length human CCR8 stably expressed on CHO or HEK293 cells; also endogenous on HuT78 cells in one ADCC assay; also called hCCR8; CHO-hCCR8
T3 sequence (P51685 whole entry): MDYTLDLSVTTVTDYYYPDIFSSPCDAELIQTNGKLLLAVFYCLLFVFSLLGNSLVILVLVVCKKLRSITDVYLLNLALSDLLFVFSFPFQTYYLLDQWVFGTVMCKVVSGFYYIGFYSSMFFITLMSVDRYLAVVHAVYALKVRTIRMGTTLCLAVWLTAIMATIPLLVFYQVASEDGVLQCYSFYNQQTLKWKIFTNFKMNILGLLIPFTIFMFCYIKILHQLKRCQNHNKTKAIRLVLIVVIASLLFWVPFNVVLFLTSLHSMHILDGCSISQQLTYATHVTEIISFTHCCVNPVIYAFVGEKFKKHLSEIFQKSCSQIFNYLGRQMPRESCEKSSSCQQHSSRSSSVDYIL
Protocol: as §1

human CCR8 [2] = target: T3, human CCR8; experiment: cell-based or functional assay
human CCR4 = target: T1, human CCR4; experiment: flow cytometry of purified Fab on cells stably expressing human CCR4
Protocol: The positive clones obtained in example 1 were re-induced to express and purified to obtain a Fab antibody. The binding to cells stably expressing human CCR8, cynomolgus monkey CCR8 and human CCR4 was tested respectively, 5×10⁴ test cells were added to each well of a 96-well U-shaped plate and centrifuged to discard the supernatant, 100 μL/well of the purified Fab antibody was added and the mixture was incubated on ice for 60 minutes. After washing away the unbound primary antibody, 50 μL of a secondary antibody solution (Anti-human IgG, F(ab′)2-AF647, Jackson Immuno Research) was added to each well and the mixture was incubated on ice for 30 minutes. After washing, 50 μL of a PI/BSA solution at 5 μg/mL was added to each well and the mixture was incubated on ice for 5 minutes. Then excess secondary antibody was washed away with 0.5% BSA, the cells were resuspended by adding a PBS solution, and binding of the antibody to the cells was detected using a flow cytometer (Intellicyte iQue).

human CCR8 [3] = target: T3, human CCR8; experiment: flow cytometry, purified Fab on CHO-hCCR8 cells
human CCR8 [4] = target: T3, human CCR8; experiment: cell-based or functional assay; remark: listed apart in the source
human CCR8 [5] = target: T3, human CCR8; experiment: cell-based or functional assay; remark: listed apart in the source

Binder	EC50 (human CCR8 [1]) [nM]	ADCC EC50 (nM), NK92-CD16A effectors, HEK293-hCCR8 targets, LDH release (human CCR8 [2]) [nM]	binding result (human CCR4)	also measured
110G2 anti-CCR8 chimeric antibody (antibody, V domains shown) VH: QVQLVESNGRLVQPKGSLKLSCAASGFTFNAYAMNWVRQAPGKGLEWVARIRSKSNNYATYYADSVKDRFTISRDDSQSMLYLQMNNLKTEDTAMYFCVRQKFGARGYYALDFWGQGASVTVSS VL: EILLTQSPAIMSASPGEKVTMTCRASSSVSSSYLHWYQQKSGASPKLWIYSTSNLASGVPARFSGSGSGTSYSLTISSVEAEDAATYYCQQYSGYPYTFGGGTKLEIK	0.45	0.04		EC50 (cynomolgus monkey CCR8): 1.26 nM
113B3 Fab antibody (Fab, V domains shown, also called clone 113B3) VH: EVQLVESNGGLVQPKGSLKLSCAASGFTFNAYAMNWVRQAPGKGLEWVARIRSKSNNYATYYADSVKDRFTISRDDSQSMLYLQMNNLKTEDTAMYFCVRQKFGSRGYYALDFWGQGATVTVSS VL: QIVLTQSPAIMSASLGERVTMTCTASSSVSSSYLHWYQQKPGSSPKLWIYSTSNLASGVPARFSGSGSGTSYSLTISSMEAEDAATYYCHQYHRSPRTFGGGTRLEIK			no binding	
139A9 Fab antibody (Fab, V domains shown, also called clone 139A9) VH: QVQLVESNGRLVQPKGSLKLSCAASGFTFNAYAMNWVRQAPGKGLEWVARIRSKSNNYATYYADSVKDRFTISRDDSQSMLYLQMNNLKTEDTAMYFCVRQKFGARGYYALDFWGQGASVTVSS VL: ENVLTQSPTTMAASPGEKITITCSASSSISSNYLHWYQQKPGFSPKLLIYRTSNLASGVPARFSGSGSGTSYSLTIGTMEAEDVATYYCQQGSSIPLTFGAGTKLELK			no binding	
102H5 Fab antibody (Fab, V domains shown, also called clone 102H5) VH: QVQLVESNGRLVQPKGSLKLSCAASGFTFNAYAMNWVRQAPGKGLEWVARIRSKSNNYATYYADSVKDRFTISRDDSQNMLYLQMNNLKTEDTAMYFCVRQKFGARGYYALDFWGQGATVTVSS VL: DIVLTQSPASLAVSLGQRATISCRASESVEYYGTSLMQWYQQKPGQPPKLLIYAASNVESGVPARFSGSGSGTDFSLNIHPVEEDDIAMYFCQQSRKVPYTFGGGTKLEIK			no binding	
144D2 Fab antibody (Fab, V domains shown, also called clone 144D2; 144D2 (female parent)) VH: EVQLVESGGGLVQPKGSLKLSCAASGFTFNAFAMNWVRQAPGKGLEWVARIRSKSNNYATYYADSVIDRFTISRDDSQSMLYLQMNNLKTEDTAMYYCVRGKEAGAYYAMDYWGQGTSVTVSS VL: DIVMTQAAPSVPVTPGESVSISCRSSKSLLHSNGNTYLYWFLQRPGQSPQLLIYRMSNLASGVPDRFSGSGSGTAFTLRISRVEAEDVGVYYCMQHLEYPLTFGAGTKLEIK			no binding	EC50 (human CCR8 [3]): 2.8 nM
29A8 anti-CCR8 chimeric antibody (antibody, V domains shown) VH: EVQLVESGGGLVQPKGSLKLSCAASGFTFNAFAMNWVRQAPGKGLEWVARIRSKSNNYATYYADSVIDRFTISRDDSQSMLYLQMNNLKTEDTAMYYCVRGKEAGAYYAMDYWGQGTSVTVSS VL: DIVMTQAAPSVPVTPGESVSISCRSSKSLLHSNGNTYLYWFLQRPGQSPQLLIYRMSNLASGVPDRFSGSGSGTAFTLRISKVEAEDVGVYYCMQHLEYPFTFGGGTKLEIK	3.24	0.1		
h87D8 H1K1 hIgG1 e5 (antibody, V domains shown) VH: EVQLVESGGGLVQPGGSLRLSCAASGFTFNTYAMNWVRQAPGKGLEWVARIRSKSNNYATYYADSVKGRFTISRDDSQSSLYLQMNSLRAEDTAVYYCVRGKEAGAYYAMDYWGQGTLVTVSS VL: DIVMTQSPLSLPVTPGEPASISCRSSKSLLHSNGNTYLYWFLQKPGQSPQLLIYRMSNLASGVPDRFSGSGSGTDFTLKISRVEAEDVGVYYCMQHLEYPLTFGQGTKLEIKR				ADCC EC50 (nM), PBMC FcγRIIIA158F/F effectors, HEK293-hCCR8 targets (human CCR8 [4]): 0.01 nM; ADCC EC50 (nM), PBMC FcγRIIIA158V/V effectors, HEK293-hCCR8 targets (human CCR8 [4]): 0.01 nM; ADCC maximal lysis rate, PBMC FcγRIIIA158F/F effectors, HEK293-hCCR8 targets (human CCR8 [4]): 70%; ADCC maximal lysis rate, PBMC FcγRIIIA158V/V effectors, HEK293-hCCR8 targets (human CCR8 [4]): 72%; ADCC maximal lysis rate, NK92-CD16A effectors, HEK293-hCCR8 targets (human CCR8 [5]): 58%; half-maximal effective concentration EC50 of inhibition of the Ca2+ current signal, CHO-hCCR8 cells, CCL1 stimulus (human CCR8 [5]): 5.59 nM

Further lines, with some results ahead:

EC50 (human CCR8 [1]) [nM]	ADCC EC50 (nM), NK92-CD16A effectors, HEK293-hCCR8 targets, LDH release (human CCR8 [2]) [nM]	binding result (human CCR4)	Binder	also measured
0.46	0.06		102H5 anti-CCR8 chimeric antibody (antibody, V domains shown) VH: QVQLVESNGRLVQPKGSLKLSCAASGFTFNAYAMNWVRQAPGKGLEWVARIRSKSNNYATYYADSVKDRFTISRDDSQNMLYLQMNNLKTEDTAMYFCVRQKFGARGYYALDFWGQGATVTVSS VL: DIVLTQSPASLAVSLGQRATISCRASESVEYYGTSLMQWYQQKPGQPPKLLIYAASNVESGVPARFSGSGSGTDFSLNIHPVEEDDIAMYFCQQSRKVPYTFGGGTKLEIK	EC50 (cynomolgus monkey CCR8): 1.18 nM
		no binding	110G2 Fab antibody (Fab, V domains shown, also called clone 110G2) VH: QVQLVESNGRLVQPKGSLKLSCAASGFTFNAYAMNWVRQAPGKGLEWVARIRSKSNNYATYYADSVKDRFTISRDDSQSMLYLQMNNLKTEDTAMYFCVRQKFGARGYYALDFWGQGASVTVSS VL: EILLTQSPAIMSASPGEKVTMTCRASSSVSSSYLHWYQQKSGASPKLWIYSTSNLASGVPARFSGSGSGTSYSLTISSVEAEDAATYYCQQYSGYPYTFGGGTKLEIK	
0.2	0.07		109F6 anti-CCR8 chimeric antibody (antibody, V domains shown) VH: QVQLVESNGRLVQPKGSLKLSCAASGFTFNAYAMNWVRQAPGKGLEWVARIRSKSNNYATYYADSVKDRFTISRDDSQSMLYLQMNNLKTEDTAMYFCVRQKFGARGYYALDFWGQGASVTVSS VL: DIVLTQSPASLAVSLGQRATISCRASKSVSTSGYSYMHWYQQKPGQPPKLLIYLASNLESGVPARFSGSGSGTDFTLNIHPVEEEDAATYYCQHSRELPPTFGGGTKLEIK	EC50 (cynomolgus monkey CCR8): 0.74 nM
		no binding	116F10 Fab antibody (Fab, V domains shown, also called clone 116F10) VH: EVQLVESYGGLVQPKGSLKLSCAASGFTFNAYAMNWVRQAPGKGLEWVARIRSKSNNYATYYADSVKDRFTISRDDSQNILYLQMNNLKIEDTAMYFCVRQKFGSRGYYALDFWGQGASVTVSS VL: EIVLTQSPAIMSVSPGEKVTMTCRASSSVSSSYLHWYQQKSGASPKLWIYSTSTLASGVPARFSGSGSGTSYSLTISSVEAEDAATYYCQHYTVYPLGTFGGGTKLEIK	
		no binding	109F6 Fab antibody (Fab, V domains shown, also called clone 109F6) VH: QVQLVESNGRLVQPKGSLKLSCAASGFTFNAYAMNWVRQAPGKGLEWVARIRSKSNNYATYYADSVKDRFTISRDDSQSMLYLQMNNLKTEDTAMYFCVRQKFGARGYYALDFWGQGASVTVSS VL: DIVLTQSPASLAVSLGQRATISCRASKSVSTSGYSYMHWYQQKPGQPPKLLIYLASNLESGVPARFSGSGSGTDFTLNIHPVEEEDAATYYCQHSRELPPTFGGGTKLEIK	
3.39	0.21		30A7 anti-CCR8 chimeric antibody (antibody, V domains shown) VH: QVQLVESGGGLVQPKGSLKLSCAASGFTFNTYAMNWVRQAPGKGLEWVARIRSKSNYYATYYADSVKDRFTISRDDSQSMLYLQMNNLKTEDTAMYYCLRGKEAGAYYAMDYWGQGTSVTVSS VL: DIVMTQAAPSVPVTPGESVSISCRSSKSLLHSNGNTYLYWFLQRPGQSPQLLIYRMSNLASGVPDRFSGSGSGTAFTLRISRVEAEDVGVYYCMQHLEYPFTFGAGTKLEIK	
		no binding	87D8 Fab antibody (Fab, V domains shown, also called clone 87D8) VH: EVQLVESGGGLVQPKGSLRLSCAASGFTFNTYAMNWVRQAPGKGLEWIARIRSKSNNYATYYADSVKDRFTISRDDSQSMLYLQMNNLKTEDTAMYYCVRGKEAGAYYAMDYWGQGTSVTVSS VL: DIVMTQAAPSVPVTPGESVSISCRSSKSLLHSNGNTYLYWFLQRPGQSPQLLIYRMSNLASGVPDRFSGSGSGTAFTLRISRVEAEDVGVYYCMQHLEYPLTFGAGTKLELK	
